The source of these data is US20230002481A1 (Chugai, published 2023).

The assay addresses T1, recombinant human C1r2s2 tetramer (human, UniProt P09871 16-688; P00736 18-705).
T1 construct: Heterotetramer of two C1r and two C1s chains, co-expressed in FreeStyle293-F cells; also called human C1r2s2s
T1 chain 1: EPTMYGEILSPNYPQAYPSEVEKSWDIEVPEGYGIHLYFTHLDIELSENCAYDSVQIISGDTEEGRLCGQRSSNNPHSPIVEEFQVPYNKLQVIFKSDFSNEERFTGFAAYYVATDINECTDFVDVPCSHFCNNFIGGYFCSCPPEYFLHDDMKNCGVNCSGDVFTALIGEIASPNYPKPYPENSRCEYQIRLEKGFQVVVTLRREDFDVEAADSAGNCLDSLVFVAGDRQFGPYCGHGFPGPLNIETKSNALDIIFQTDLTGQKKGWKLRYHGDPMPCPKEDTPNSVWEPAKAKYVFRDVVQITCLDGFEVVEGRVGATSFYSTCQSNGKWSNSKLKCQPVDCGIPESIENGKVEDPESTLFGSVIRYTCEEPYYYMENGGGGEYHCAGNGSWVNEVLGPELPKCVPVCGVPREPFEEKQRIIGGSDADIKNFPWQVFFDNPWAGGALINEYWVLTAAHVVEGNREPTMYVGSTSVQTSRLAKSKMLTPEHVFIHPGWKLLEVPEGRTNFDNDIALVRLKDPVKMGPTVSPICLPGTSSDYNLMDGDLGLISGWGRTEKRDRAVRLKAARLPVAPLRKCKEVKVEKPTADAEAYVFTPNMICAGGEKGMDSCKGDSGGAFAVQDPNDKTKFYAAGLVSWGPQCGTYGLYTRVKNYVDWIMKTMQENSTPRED
T1 chain 2: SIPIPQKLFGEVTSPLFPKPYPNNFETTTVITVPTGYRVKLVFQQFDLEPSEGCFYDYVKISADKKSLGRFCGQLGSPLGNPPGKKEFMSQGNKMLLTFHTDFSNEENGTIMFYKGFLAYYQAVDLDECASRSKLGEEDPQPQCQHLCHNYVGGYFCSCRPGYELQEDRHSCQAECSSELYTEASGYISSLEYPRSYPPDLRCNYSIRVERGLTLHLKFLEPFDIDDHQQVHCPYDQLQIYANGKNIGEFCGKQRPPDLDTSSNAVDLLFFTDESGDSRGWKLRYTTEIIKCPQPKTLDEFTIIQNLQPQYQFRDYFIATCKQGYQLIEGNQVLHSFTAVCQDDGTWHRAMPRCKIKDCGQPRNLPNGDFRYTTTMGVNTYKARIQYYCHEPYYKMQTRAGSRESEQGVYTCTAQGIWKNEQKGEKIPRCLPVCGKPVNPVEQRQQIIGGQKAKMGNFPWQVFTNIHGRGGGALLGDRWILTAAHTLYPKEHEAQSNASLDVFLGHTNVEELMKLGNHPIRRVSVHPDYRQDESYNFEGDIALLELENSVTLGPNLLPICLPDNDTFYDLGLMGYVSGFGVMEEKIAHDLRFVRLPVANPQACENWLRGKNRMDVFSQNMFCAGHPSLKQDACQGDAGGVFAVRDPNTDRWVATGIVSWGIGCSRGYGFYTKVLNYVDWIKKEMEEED
As to the kind of experiment: SPR (Biacore), antibody captured on ProA/G, antigen as analyte, 37 C, pH7.4, 1.2 mM CaCl2. The procedure:
The kinetic parameters of anti-C1s antibodies against recombinant human C1s (as described in PCT/JP2018/042054), human C1r2s2, and cyno C1r2s2 His/Flag (also referred as cyno C1r2s2 in the Table and Figures) were assessed at pH7.4 and pH5.8, at 37 degrees C. using BIACORE (registered trademark) T200 instrument (GE Healthcare) or BIACORE 4000 (GE Healthcare). ProAG (Pierce) was immobilized onto a CM4 sensorchip using amine coupling kit (GE Healthcare) according to the recommended settings by GE Healthcare. Antibodies and analytes were diluted into the respective running buffers, ACES pH7.4 and pH5.8 (20 mM ACES, 150 mM NaCl, 1.2 mM CaCl₂, 1 mg/ml BSA, 1 mg/ml CMD, 0.05% Tween 20, 0.005 w/v % NaN₃). Each antibody was captured onto the sensor surface by ProA/G. Antibody capture levels were typically 100-200 resonance units (RU). Then, recombinant C1s was injected at concentrations of 25 and 50 nM followed by dissociation at pH7.4 and pH5.8. The surface was regenerated using 10 mM Glycine-HCl, pH1.5. Kinetic parameters at neutral pH conditions and acidic conditions were determined by fitting the sensorgrams with 1:1 binding model using BIACORE (registered trademark) T200 Evaluation software, version 2.0 (GE Healthcare) or BIACORE 4000 Evaluation software. The dissociation rate at pH5.8 (after dissociation at pH7.4, indicated as pH5.8* in TABLE 2) was determined by processing and fitting data using Scrubber 2.0 (BioLogic Software) curve fitting software. The association rate (ka), dissociation rate (kd), binding affinity (KD) at pH7.4 and pH5.8 condition, and dissociation rate (kd) at pH5.8* condition of the antibodies are listed in TABLE 2. Some kinetic parameters of COS0098pHv1 in acidic condition were not correctly calculated because of its weak binding response.
Also, to observe the cross-reactivity of anti-C1s antibodies against human C1r2s2 and cyno C1r2s2 (cyno C1r2s2 His/Flag), BIACORE (registered trademark) kinetics analysis was performed.
In general terms: Surface plasmon resonance follows binding to a sensor surface in real time, without labels.

Usually Kd stands for the concentration at which binding is half-saturated. Usually koff stands for the rate constant with which the complex falls apart. What is called kon is a measure of how fast the partners come together.

B1: COS0098pHv1 (antibody, V domains shown)
VH: QVQLVQSGAEVKKPGSSVKVSCKASGHTFSKYTVSWIRQPPGKGLEWIGIINTGGSAYPATWAKGRVTITADESTSTAYMELSSLRSEDTAVYYCARGAGDTDYTNLWGQGTLVTVSS
VL: DIQMTQSPSSLSASVGDRVTITCQASENIYSALAWYQQKPGQPPKLLIYGASQLESGVPSRFSGSGSGTDFTLTISSLQPEDFATYYCQQYYFTSHTFGQGTKVEIK
notes: Humanized, optimized pH-dependent variant of COS0098bb
For B1, the Kd is 4 nM, the koff worked out at 0.00206 s⁻¹ and the kon was found to be 514000 M⁻¹ s⁻¹.
